According to the supplement of paper PMC12455559:
± gives the standard deviation of the averaged measurements.

Assays:
[1] = PET hydrolysis, aromatic products released after 48 h (umol product/mg enzyme); higher = more PET depolymerization activity
Outline: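 The measure of PET hydrolysis activity is aromatic product released into the supernatant, given per mg enzyme. Nickel-purified, SUMO-cleaved enzyme without tag was added at 5 μg (50 μL) to 3.5 mg amorphous PET film or crystalline PET powder in 450 μL of citrate, phosphate or glycine buffer spanning pH 4.5 to 8.5. After 48 h at 40 or 60 °C in sealed plates without shaking, absorbance at 260 and 280 nm was taken against buffer blanks.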

[2] = purified protein yield per well (BCA); higher = higher soluble expression
Outline: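 Purified protein yield per well is reported, as measured by the Pierce Rapid Gold BCA kit. The enzymes came from E. coli C41(DE3) autoinduction cultures of 2 mL with 100 µg/mL kanamycin, held at 37 °C for 2 h and 18 °C for 40 h, then lysed and purified on Ni-charged magnetic beads with SUMO protease release. The detection threshold is 25 ug (0.1 mg/mL), and lower values are under it.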

[3] = melting temperature (DSF); higher = more thermostable
Outline: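 Candidate enzymes were expressed in E. coli C41(DE3), purified on nickel beads and released by SUMO protease cleavage. For differential scanning fluorimetry, 45 μL enzyme (0 to 0.3 mg/mL) was mixed with 5 μL 5X Sypro Orange in sealed PCR plates on a Bio-Rad CFX96 instrument. Fluorescence was read from 25 °C in steps of 0.3 °C per cycle (ramp 0.3 °C/s) for 250 cycles. The read-out is melting temperature.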

[4] = substrate: cryPow, 40 °C, pH 4.5
[5] = substrate: cryPow, 40 °C, pH 5.5
[6] = substrate: cryPow, 40 °C, pH 6.5
[7] = substrate: cryPow, 40 °C, pH 7.5
[8] = substrate: cryPow, 60 °C, pH 4.5
[9] = substrate: cryPow, 60 °C, pH 5.5
[10] = substrate: cryPow, 60 °C, pH 6.5
[11] = substrate: cryPow, 60 °C, pH 7.5
[12] = substrate: aFilm, 40 °C, pH 5.5
[13] = substrate: aFilm, 40 °C, pH 6.5
[14] = substrate: aFilm, 40 °C, pH 7.5
[15] = substrate: aFilm, 40 °C, pH 8.5
[16] = substrate: aFilm, 60 °C, pH 5.5
[17] = substrate: aFilm, 60 °C, pH 6.5
[18] = substrate: aFilm, 60 °C, pH 7.5
[19] = substrate: aFilm, 60 °C, pH 8.5
[20] = substrate: cryPow, 40 °C, pH 8.5
[21] = substrate: cryPow, 60 °C, pH 8.5

Sequence | PET hydrolysis [1, 4] | PET hydrolysis [1, 5] | PET hydrolysis [1, 6] | PET hydrolysis [1, 7] | PET hydrolysis [1, 8] | PET hydrolysis [1, 9] | PET hydrolysis [1, 10] | PET hydrolysis [1, 11] | purified protein yield per well [2] [µg] | melting temperature [3] [C] | PET hydrolysis [1, 12] | PET hydrolysis [1, 13] | PET hydrolysis [1, 14] | PET hydrolysis [1, 15] | PET hydrolysis [1, 16] | PET hydrolysis [1, 17] | PET hydrolysis [1, 18] | PET hydrolysis [1, 19] | PET hydrolysis [1, 20] | PET hydrolysis [1, 21] | PET hydrolysis ([1]; substrate: aFilm, 40 °C, pH 4.5) | PET hydrolysis ([1]; substrate: aFilm, 60 °C, pH 4.5)
AESPYQRGPDPTRESVAASRGTFATAEVSVPAGNGFGGGVIYYPTDTSQGTFGGVAIVPGYTATWAAEGAWMGHWLASFGFVVIGIDTINRNDWDTARGTQLLAALDYLTQRSSVRNRVDANRLAVMGHSMGGGGAMHAALQRPSLKAAIGLAPFSPSQNLTNMRVPTLLVAGQNDTTTTPTSILNLYNGIPATTEKAYLELTGAGHGFPTSANSVMTRKVIPWLKIFVDHDTRYHQFLCPLLDWTGITAYRSSCPLNPPGGPTGSTFSLVGADSGKCVDVPGASRTNGTGLITYTCNGASNQRWTQTAANELRIYDNSKCMEAGTSAGSRAVITSCTGGNGQKWTFNANGTITHAQSGLCLYVNGGSTANQAAVIVWTCHGGSNQVWTRQP [TEP163] | < 3 | 8 | 8 | 5 | < 3 | < 3 | 3 | < 3 | 148 | 73 |  |  |  |  |  |  |  |  |  |  |  | 
EEPASGYQRGPAPTTSSIESSRGPFSTSQVSISGLSANGFGGADVYYPTDTSQGTFGAVAISPGYTARKSSMAWLASRLASQGFVVINIDTNTTSDQPASRGRQLLAALDQVTKDSRVANRIDPTRLAVVGHSMGGGGALEASRSRPSLQAAIPLTPWNTTKSFSGNQVPTLVVGAERDTVASVRSHAEPFYRSLPSAPGKAYLELAGASHFAPNTSNTTIAKHSIAWLKLFVDNDERYRQFVCPGPTSDRAVSDYQNTCSSFTP [DP053] |  | < 3 | < 3 | < 3 |  | < 3 | < 3 | < 3 | 235 | 42.7 | < 3 | < 3 | < 3 | < 3 | < 3 | < 3 | < 3 | < 3 | < 3 | < 3 |  | 
QSSSAAANPYERGPAPTVSSVAAQRGTFATAEVTVPPGNGFNGGKIYYPTDTSLGTWGAVAAVPGYTARWSAEGAWMGPWLASFGFVVIGIDTNSPNDYDTARGTQLLAALDYLTRKSPVHDRVDPNRLGVIGHSMGGGGAISAAERRPSLKAAVPLAPFSPSQNLSSLRVPTMIMGARDDGTVTPSYLDGLYSGMPAATQSAYIELTSGGHGFPTWGNSHVTRRAIPWLKIFLDNDTRYTQFLCPSPADSREVSRSQTKCPYVPPGGTTTPPSGEQIVGAASGRCLDVVNSSQTSGAQAHPWDCADRPGQKWARTDAGELRVYSNKCLDAEASGTSAGTRVVIWACHGRQNQRWNVNANGTITSVPSGLCLDTYNGGTGNGAQSVLGNCNGASTQRWTLR [TEP086] | < 3 | < 3 | < 3 | < 3 | < 3 | < 3 | < 3 | < 3 | 385 | 56.8 | < 3 | < 3 | < 3 |  | < 3 | < 3 | < 3 |  |  |  | < 3 | < 3
ANPYERGPDPTLASVEATSGTFAYASLSVSSGNGFGGGTIYYPTSTTDGTFAGIVTCPGFTNSGSSMAWFGKVLASQGFVTLVMNPKSNLDFPDARATQMLAALDWLTNSSSVKTRIDATRLGVLGQSMGGGATLKASKTRPSLKASFATAPYNSDKDWSTNTVPQFLFGMQNDTTAAVTNHALKFYNSLPATTPKIYAELRGAGHSTATSPNTSIRRYAVSFMKRNLDNDTRYSQFLCPGPTITSSSPLSAFMSNCLF [DP080] |  | < 3 | 2 ± 2.8 | 6 |  | < 3 | < 3 | < 3 | 291 | 63.1 | < 3 | < 3 | < 3 | 1.5 ± 2.1 | < 3 | < 3 | < 3 | < 3 | 8 ± 1.4 | < 3 |  | 
AGFEKGPDPTTASVTADRGSYDIAQVDVPKGSGTGFADGTIYYPKSTADGTFGAVAVIPGFLEPKSAIDWYGPRLASQGFVVMTLDTTSVFDTPDSRGGQLLAALDYLTSKSTVKDRIDPNRLAVVGHSMGGGGTLSAAANRPNLKAAVALAPWHVSAPLTSVKTPTMIFGSDNDFIAPDGTFAKPFYDGISNAPEKAYVRLKNAGHMAYVFPDKRIAEYTLSWLKRYVDDDTRYTQFLCPGPTNESTIAAYKSTCPM [DP093] |  | 4 | 1.5 ± 2.1 | < 3 |  | < 3 | < 3 | < 3 | 225 | 46.6 | < 3 | < 3 | < 3 | < 3 | < 3 | < 3 | < 3 | < 3 | < 3 | < 3 |  | 
